The record followed here is doi:10.1101/2024.11.03.621741 (bioRxiv, 2024).

Positions count from the first letter of the chain named. Names may count otherwise.

The labels stand for the following.
B1: GST-FIGNL1-dNLS (domain or fragment)
chain: AGKKFKDSLLEPALASVVIHKEATVFDLPKFSVCGSSQESDSLPNSAHDRDRTQDFPESNRLKLLQNAQPPMVTNTARTCPTFSAPVGESATAKFHVTPLFGNVKKENHSSAKENIGLNVFLSNQSCFPAACENPQRKSFYGSGTIDALSNPILNKACSKTEDNGPKEDSSLPTFKTAKEQLWVDQQKKYHQPQRASGSSYGGVKKSLGASRSRGILGKFVPPIPKQDGGEQNGGMQCKPYGAGPTEPAHPVDERLKNLEPKMIELIMNEIMDHGPPVNWEDIAGVEFAKATIKEIVVWPMLRPDIFTGLRGPPKGILLFGPPGTGKTLIGKCIASQSGATFFSISASSLTSKWVGEGEKMVRALFAVARCQQPAVIFIDEIDSLLSQRGDGEHESSRRIKTEFLVQLDGATTSSEDRILVVGATNRPQEIDEAARRRLVKRLYIPLPEASARKQIVINLMSKEQCCLSEEEIEQIVQQSDAFSGADMTQLCREASLGPIRSLQTADIATITPDQVRPIAYIDFENAFRTVRPSVSPKDLELYENWNKTFGCGK
B2: RAD51 (wild type, recombinant) (natural protein)
chain: MAMQMQLEANADTSVEEESFGPQPISRLEQCGINANDVKKLEEAGFHTVEAVAYAPKKELINIKGISEAKADKILAEAAKLVPMGFTTATEFHQRRSEIIQITTGSKELDKLLQGGIETGSITEMFGEFRTGKTQICHTLAVTCQLPIDRGGGEGKAMYIDTEGTFRPERLLAVAERYGLSGSDVLDNVAYARAFNTDHQTQLLYQASAMMVESRYALLIVDSATALYRTDYSGRGELSARQMHLARFLRMLLRLADEFGVAVVITNQVVAQVDGAAMFAADPKKPIGGNIIAHASTTRLYLRKGRGETRICKIYDSPCLPEAEAMFAINADGVGDAKD
B3: RAD51-K133R (natural protein)
chain: B2 chain with K133R

Experiment [1] addresses MMS22L-TONSL complex (recombinant, purified) (human, UniProt Q6ZRQ5;Q96HA7). The experiment is described as follows: pull-down.
The target of the experiment “GST-FIGNL1-dNLS” is B1. The experiment is described as follows: pull-down.

MMS22L-TONSL complex (recombinant, purified), sequence (Q6ZRQ5 whole entry, chain 1 of 2): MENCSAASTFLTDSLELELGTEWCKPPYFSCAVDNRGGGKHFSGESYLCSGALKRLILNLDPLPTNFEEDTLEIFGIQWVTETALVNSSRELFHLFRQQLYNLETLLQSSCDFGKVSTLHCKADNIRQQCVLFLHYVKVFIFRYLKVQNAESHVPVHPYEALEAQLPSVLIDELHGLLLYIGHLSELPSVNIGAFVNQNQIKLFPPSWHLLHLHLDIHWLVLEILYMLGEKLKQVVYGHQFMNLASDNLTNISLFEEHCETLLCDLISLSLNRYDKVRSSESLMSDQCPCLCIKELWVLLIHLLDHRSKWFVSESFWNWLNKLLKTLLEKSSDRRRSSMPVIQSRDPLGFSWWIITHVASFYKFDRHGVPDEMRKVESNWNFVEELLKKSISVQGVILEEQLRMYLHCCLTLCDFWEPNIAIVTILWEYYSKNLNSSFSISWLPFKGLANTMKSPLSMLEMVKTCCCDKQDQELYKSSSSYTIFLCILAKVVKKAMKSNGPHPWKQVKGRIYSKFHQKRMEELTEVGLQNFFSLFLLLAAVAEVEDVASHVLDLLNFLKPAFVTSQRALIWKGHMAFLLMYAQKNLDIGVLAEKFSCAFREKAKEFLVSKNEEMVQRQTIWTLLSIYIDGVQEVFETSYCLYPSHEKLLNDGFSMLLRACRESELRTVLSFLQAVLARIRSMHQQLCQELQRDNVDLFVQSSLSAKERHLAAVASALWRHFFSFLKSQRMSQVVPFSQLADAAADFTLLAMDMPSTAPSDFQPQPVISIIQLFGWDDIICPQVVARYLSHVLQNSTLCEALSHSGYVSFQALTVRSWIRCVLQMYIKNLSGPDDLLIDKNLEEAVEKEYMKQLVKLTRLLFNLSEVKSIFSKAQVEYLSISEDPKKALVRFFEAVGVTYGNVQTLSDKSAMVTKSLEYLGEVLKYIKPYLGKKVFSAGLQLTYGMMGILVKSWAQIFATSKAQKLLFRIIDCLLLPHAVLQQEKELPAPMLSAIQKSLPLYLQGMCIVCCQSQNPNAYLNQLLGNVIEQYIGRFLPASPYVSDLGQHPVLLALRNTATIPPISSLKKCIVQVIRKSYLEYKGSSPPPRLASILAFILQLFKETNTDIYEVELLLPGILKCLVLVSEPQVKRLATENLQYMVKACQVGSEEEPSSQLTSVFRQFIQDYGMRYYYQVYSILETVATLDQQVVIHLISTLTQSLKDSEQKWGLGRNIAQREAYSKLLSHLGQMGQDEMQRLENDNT
MMS22L-TONSL complex (recombinant, purified), sequence (Q96HA7 whole entry, chain 2 of 2): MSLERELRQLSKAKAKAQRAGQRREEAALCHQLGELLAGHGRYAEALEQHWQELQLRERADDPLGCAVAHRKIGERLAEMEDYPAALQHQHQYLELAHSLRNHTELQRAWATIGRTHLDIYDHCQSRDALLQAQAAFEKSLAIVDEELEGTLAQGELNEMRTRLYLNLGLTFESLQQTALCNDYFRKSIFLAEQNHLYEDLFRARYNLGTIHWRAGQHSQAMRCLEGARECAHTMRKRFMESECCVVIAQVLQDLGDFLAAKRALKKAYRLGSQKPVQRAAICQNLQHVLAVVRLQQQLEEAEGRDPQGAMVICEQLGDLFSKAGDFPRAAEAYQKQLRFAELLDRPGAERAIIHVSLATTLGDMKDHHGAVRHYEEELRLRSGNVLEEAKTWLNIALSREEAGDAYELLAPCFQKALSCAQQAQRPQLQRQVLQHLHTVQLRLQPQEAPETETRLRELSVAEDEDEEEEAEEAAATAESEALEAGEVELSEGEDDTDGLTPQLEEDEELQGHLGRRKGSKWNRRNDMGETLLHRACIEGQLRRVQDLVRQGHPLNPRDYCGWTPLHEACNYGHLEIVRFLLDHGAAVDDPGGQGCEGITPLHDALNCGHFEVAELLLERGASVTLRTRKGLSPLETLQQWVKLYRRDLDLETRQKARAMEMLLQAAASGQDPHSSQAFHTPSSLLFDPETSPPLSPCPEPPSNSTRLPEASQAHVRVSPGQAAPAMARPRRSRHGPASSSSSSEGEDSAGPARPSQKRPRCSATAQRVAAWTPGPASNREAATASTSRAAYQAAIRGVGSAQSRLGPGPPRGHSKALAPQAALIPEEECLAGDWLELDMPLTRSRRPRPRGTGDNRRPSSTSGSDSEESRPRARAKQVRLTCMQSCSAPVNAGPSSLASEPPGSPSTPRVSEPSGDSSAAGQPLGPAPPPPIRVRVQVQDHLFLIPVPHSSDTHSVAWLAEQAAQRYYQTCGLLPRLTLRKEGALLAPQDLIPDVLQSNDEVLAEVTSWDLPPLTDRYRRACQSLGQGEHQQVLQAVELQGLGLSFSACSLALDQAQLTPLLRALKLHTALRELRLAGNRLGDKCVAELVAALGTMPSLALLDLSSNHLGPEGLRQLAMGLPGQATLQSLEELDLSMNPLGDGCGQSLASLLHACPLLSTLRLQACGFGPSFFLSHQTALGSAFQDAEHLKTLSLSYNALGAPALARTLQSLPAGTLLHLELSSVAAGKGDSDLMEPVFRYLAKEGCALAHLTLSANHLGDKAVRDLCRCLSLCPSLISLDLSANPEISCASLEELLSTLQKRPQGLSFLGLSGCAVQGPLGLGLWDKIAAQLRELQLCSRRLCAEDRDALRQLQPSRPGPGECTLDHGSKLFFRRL

Regarding B1, the binding result in experiment [1] is on record as “binds”.

Consider B2, for which the binding result with GST-FIGNL1-dNLS was “binds”.

For B3, in the experiment with GST-FIGNL1-dNLS, the binding result is listed as “binds”.
